These results are taken from publication PMC2777438.

One data set deals with T1, Δ14ArtA (Staphylococcus aureus plasmid pSK41, UniProt Q52270 15-62, del1-14).
T1 chain: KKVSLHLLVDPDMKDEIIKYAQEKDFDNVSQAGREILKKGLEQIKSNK
Description: fluorescence polarization.

Data set [1] has as its target T2, ArtA (Staphylococcus aureus plasmid pSK41, UniProt Q52270 1-62).
T2 sequence: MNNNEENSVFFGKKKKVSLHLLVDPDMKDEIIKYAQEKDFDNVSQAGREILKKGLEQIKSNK
As to the kind of experiment: fluorescence polarization. On the technique in general: In fluorescence polarisation assays a small probe gives low polarisation when free and higher when bound to something large.

For data set [2], the target named is T2, ArtA. As to the kind of experiment: fluorescence polarization. This is another data set of the same source.
Data set [3] addresses T2, ArtA. As to the kind of experiment: fluorescence polarization. This is another data set of the same source.
Data set [4] concerns the target T2, ArtA. As to the kind of experiment: fluorescence polarization. The source holds these as a separate data set.
Data set [5] has as its target T2, ArtA. As to the kind of experiment: crystal structure.
In data set [6] the target is T2, ArtA. Description: fluorescence polarization. The source holds these as a separate data set.

Usually Kd stands for the concentration at which binding is half-saturated.

Like-named read-outs stand apart in the source and are kept apart here.

B1: PartA operator (dsDNA)
DNA 1: TTGTCATGACATGTCATGTGTAA
DNA 2: TTACACATGACATGTCATGACAA
B1: the Kd with Δ14ArtA came to 41 ± 9 nM; with ArtA [1] it was 28 ± 8 nM.

B2: Porf538 21-mer (dsDNA)
DNA 1: ACACGACATGAAATGACACGT
DNA 2: ACGTGTCATTTCATGTCGTGT
On to B2, for which, in the data set with Δ14ArtA, the binding result is “no binding”. The figures for the Kd in the data set with ArtA [2], in the data set with ArtA [3] and with ArtA [4] were 60 ± 10 nM, 42 ± 7 nM and 58 ± 5 nM, respectively.

B3: 12-mer consensus (crystal) (dsDNA)
DNA 1: GACATGACATGT
DNA 2: CACATGTCATGT
modifications: 5-bromouracil at thymines (MAD DNA only)
Turning to B3, the binding result with ArtA [5] is “binds”.

B4: Porf538 Mutant 1 (dsDNA)
DNA 1: ACACTAAATGAAATGACACGT
DNA 2: ACGTGTCATTTCATTTAGTGT
Regarding B4, the binding result with Δ14ArtA and in the data set with ArtA [1] was “no binding” throughout.

B5: Porf259 24-mer (dsDNA)
DNA 1: TAAACATTGCATAACATGACAGGT
DNA 2: ACCTGTCATGTTATGCAATGTTTA
In the case of B5, the binding result with Δ14ArtA and with ArtA [6] was “no binding” each time.

B6: Porf538 Mutant 2 (dsDNA)
DNA 1: ACACGACATGAAATTAAACGT
DNA 2: ACGTTTAATTTCATGTCGTGT
Turning to B6, the binding result in the data set with Δ14ArtA and with ArtA [1] was “no binding” each time.

B7: Porf259 11-mer (dsDNA)
DNA 1: ACATGACAGGT
DNA 2: ACCTGTCATGT
As for B7, in the data set with Δ14ArtA, the binding result is recorded as “no binding”. Binding with ArtA [1] was put at a Kd of 790 ± 34 nM.

B8: PtraL operator (dsDNA)
DNA 1: TGCATTACATGACATGACATGTAAT
DNA 2: ATTACATGTCATGTCATGTAATGCA
As for B8, the Kd is 39 ± 5 nM in the data set with Δ14ArtA and 23 ± 5 nM with ArtA [1].

B9: Porf538 left half site (dsDNA)
DNA 1: ACACGACATCA
DNA 2: TGATGTCGTGT
Consider B9, for which the binding result with Δ14ArtA and with ArtA [1] was “no binding” throughout.

B10: PtraA operator (dsDNA)
DNA 1: TTACATGACATGACATGTAATAC
DNA 2: GTATTACATGTCATGTCATGTAA
For B10, the Kd came to 52 ± 6 nM with Δ14ArtA and 42 ± 9 nM with ArtA [1].

B11: 22-mer operator (dsDNA)
DNA 1: CAAACATGATATGACATGTAAT
DNA 2: ATTACATGTCATATCATGTTTG
In the case of B11, the Kd came out at 58 ± 5 nM in the data set with Δ14ArtA and 62 ± 6 nM in the data set with ArtA [1].

B12: 11-mer consensus (dsDNA)
DNA 1: ACATGACATGT
DNA 2: ACATGTCATGT
Take B12: the Kd with Δ14ArtA was determined as 222 ± 8 nM; in the data set with ArtA [1], 127 nM.

B13: Porf538 right half site (dsDNA)
DNA 1: AAATGACACGT
DNA 2: ACGTGTCATTT
For B13, the binding result in the data set with Δ14ArtA and with ArtA [1] was “no binding” each time.

B14: 16-mer consensus (dsDNA)
DNA 1: ACATGACATGACATGT
DNA 2: ACATGTCATGTCATGT
Take B14: the Kd came out at 58 ± 3 nM in the data set with Δ14ArtA and 60 ± 3 nM with ArtA [1].
